# From the supplement of paper PMC9170038
# Tested on: MS2 coat protein
# Assay: apparent KD of MS2 coat protein; higher = weaker reporter binding
# Details: Eterna round: R107; input ligand: arginine 13.2 mM
# Procedure, shortened: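 Illumina sequencing clusters were used for on-chip transcription of designed RNA switches. Titration with SNAP-549-labelled MS2 coat protein followed, in twofold steps from 0.7 or 1.5 nM to 3 µM in 100 mM Tris-HCl pH 7.5, 80 mM KCl, 4 mM MgCl2, without or with constant ligand. Apparent KD is each design's median of fits to normalised cluster binding curves.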
row,Sequence,apparent KD of MS2 coat protein
1,AAACAUGAGGAUCACCCAUGUAUACUUAGACGAGGACCGGUACGGCCGCCACUCGAACUUCAAGAUUUGGCGGAUAAUGUAUGUA [JR_Nu22_ExcTryptoA_Sub023],9.74 nM
2,GCCGGGCCUUCGGCCGCCACUGAGAGAGUCGUGUGAACAUGAGGAUCACCCAUGUAAUAUAUAUACAGGACCGGGAGGGCCCGGC [4.V],12.6 nM
3,UGUCGAAACUGAAGGAGCGAGAUGACAACAUUGGGUCUAACAUGAGGAUCACCCAUGUAAUCUCAGGUAGGUCGCAGUGACAAAA [Exclusion Arginine B GF 15],64.5 nM
4,ACAUCCAGGUUAAUCGUGGGCAUACUCGAUACCAGUAUUUUAAUCUACCCUUGGCAGCGACAUGAGGAUCACCCAUGUGCGAUGA [XTheo A #12],11.7 nM
5,UCGGGCAGAGCGGCCGCCACUGUUUGGCAUGCGGAUGAAGGAACAUGAGGAUCACCCAUGUAGAUUAGGACCGGGCUGGCGGAGA [jjhemullin],17.3 nM
6,UGUAACAUGAGGAUCACCCAUGUGCACGAUACCAGCUUAUUGGUAGGCCCUUGGCAGCGUAUUCGGAAGAUGUAUAAUAUAUAUC [#26 SameState-TheophyllineA],12.3 nM
7,UUCAGCUAGUCGGCCGCCACUACAAGAGGAUCACCCUUGUAGGUCCACACUGCUUCGGCAGUGAGUAGGACCGGGACUAGCUGAG,10.9 nM
8,AGACAUGAGGAUCACCCAUGUAGUACGGAUACCAGAUCCAGAUGUAUCCCUUGGCAGCUGUGGUACAGCGUUGCAUCGCUCCUAG [Exclusion - Theophylline A (Freestyle 19)],13.1 nM
9,UGGGCAUACAUGAGGAUCACCCAUGUAGAUACCAGCACUAGCCUGUGCCCUUGGCAGCUAACCGGGUCGAGAACUUAGUGCUCCU [Lexele],10.9 nM
10,CGAUUUAAGACGGCCGCCACUAUUAAGUAACAAAAUAAACAUGAGGAUCACCCAUGUACAUGGGAUAGGACCGGGUCCAAUAUCG [A2],34.8 nM
11,AGCACGGUGAUGGUAGCCGGACGCUAGGUACGAGGACCGGUACGGCCGCCACUCGAAGUCCUACGACAUGAGGAUCACCCAUGUA [Same State Trp A GF13],37.9 nM
12,GCCUCAUGUAGAAGGAGCGUCAGAAGCUACAGACAUGAGGAUCACCCAUGUUAGUUGAUCUGACAGGUAGGUCGCUACAGCAGGA [Arg B SS t7],26.7 nM
13,UGUUUGGUGCGCGAGUGUUGGAUAAUUGAUACCAGUGUAGAUGUACGCCCUUGGCAGCGAAUCCGAACAUGAGGAUCACCCAUGU [5.aA],36.7 nM
14,AAGGUGAUCCCAGAUACCAGCUUAACAUGAGGAUCACCCAUGUUUGGGACGAAAGUCCCGGGCCCUUGGCAGCUGGGUUGCCAAG [SSTheo B #18],61.9 nM
15,AAUCGGACUCGUACAGCAUGUUGAGCGGAAGGAGCGGCGAAAGAGCCAGGUAGGUCGCCGCCGACAUGAGGAUCACCCAUGUACG [Orenti],27.3 nM
16,UCGGUGCUCUACAUGAGGAUCACCCAUGUCCGAGGACCGGUACGGCCGCCACUCGCAAUCAAACAGACGUGGGCCAACUUUGCGU [Tiribeesqu],11 nM
17,AAUACAUGAGGAUCACCCAUGUAAGCUGAAGGAGCGCUGGAAACAGCAGGUAGGUCGCAGCUGCGACCUUGGUGAUCUAGGUCGC [(M1)-(M2)-(Arg1)-(Arg2)-(A)'-(M)'-(A)''_Design7],17.5 nM

# Same assay, conditions: Eterna round: R107; input ligand: none
row,Sequence,apparent KD of MS2 coat protein
1,AAACAUGAGGAUCACCCAUGUAUACUUAGACGAGGACCGGUACGGCCGCCACUCGAACUUCAAGAUUUGGCGGAUAAUGUAUGUA [JR_Nu22_ExcTryptoA_Sub023],10.9 nM
2,GCCGGGCCUUCGGCCGCCACUGAGAGAGUCGUGUGAACAUGAGGAUCACCCAUGUAAUAUAUAUACAGGACCGGGAGGGCCCGGC [4.V],16.3 nM
3,UGUCGAAACUGAAGGAGCGAGAUGACAACAUUGGGUCUAACAUGAGGAUCACCCAUGUAAUCUCAGGUAGGUCGCAGUGACAAAA [Exclusion Arginine B GF 15],94.7 nM
4,UCGGGCAGAGCGGCCGCCACUGUUUGGCAUGCGGAUGAAGGAACAUGAGGAUCACCCAUGUAGAUUAGGACCGGGCUGGCGGAGA [jjhemullin],20.1 nM
5,UUCAGCUAGUCGGCCGCCACUACAAGAGGAUCACCCUUGUAGGUCCACACUGCUUCGGCAGUGAGUAGGACCGGGACUAGCUGAG,11.3 nM
6,AGACAUGAGGAUCACCCAUGUAGUACGGAUACCAGAUCCAGAUGUAUCCCUUGGCAGCUGUGGUACAGCGUUGCAUCGCUCCUAG [Exclusion - Theophylline A (Freestyle 19)],16.6 nM
7,GCCUCAUGUAGAAGGAGCGUCAGAAGCUACAGACAUGAGGAUCACCCAUGUUAGUUGAUCUGACAGGUAGGUCGCUACAGCAGGA [Arg B SS t7],37 nM
8,AAUCGGACUCGUACAGCAUGUUGAGCGGAAGGAGCGGCGAAAGAGCCAGGUAGGUCGCCGCCGACAUGAGGAUCACCCAUGUACG [Orenti],119 nM
9,AAUACAUGAGGAUCACCCAUGUAAGCUGAAGGAGCGCUGGAAACAGCAGGUAGGUCGCAGCUGCGACCUUGGUGAUCUAGGUCGC [(M1)-(M2)-(Arg1)-(Arg2)-(A)'-(M)'-(A)''_Design7],36.6 nM

# Same assay, conditions: Eterna round: R107; input ligand: theophylline 20 uM
row,Sequence,apparent KD of MS2 coat protein
1,AAACAUGAGGAUCACCCAUGUAUACUUAGACGAGGACCGGUACGGCCGCCACUCGAACUUCAAGAUUUGGCGGAUAAUGUAUGUA [JR_Nu22_ExcTryptoA_Sub023],16.1 nM
2,GCCGGGCCUUCGGCCGCCACUGAGAGAGUCGUGUGAACAUGAGGAUCACCCAUGUAAUAUAUAUACAGGACCGGGAGGGCCCGGC [4.V],17.8 nM
3,UGUCGAAACUGAAGGAGCGAGAUGACAACAUUGGGUCUAACAUGAGGAUCACCCAUGUAAUCUCAGGUAGGUCGCAGUGACAAAA [Exclusion Arginine B GF 15],123 nM
4,ACAUCCAGGUUAAUCGUGGGCAUACUCGAUACCAGUAUUUUAAUCUACCCUUGGCAGCGACAUGAGGAUCACCCAUGUGCGAUGA [XTheo A #12],14.1 nM
5,UCGGGCAGAGCGGCCGCCACUGUUUGGCAUGCGGAUGAAGGAACAUGAGGAUCACCCAUGUAGAUUAGGACCGGGCUGGCGGAGA [jjhemullin],19.2 nM
6,UGUAACAUGAGGAUCACCCAUGUGCACGAUACCAGCUUAUUGGUAGGCCCUUGGCAGCGUAUUCGGAAGAUGUAUAAUAUAUAUC [#26 SameState-TheophyllineA],17.4 nM
7,UUCAGCUAGUCGGCCGCCACUACAAGAGGAUCACCCUUGUAGGUCCACACUGCUUCGGCAGUGAGUAGGACCGGGACUAGCUGAG,13.1 nM
8,AGACAUGAGGAUCACCCAUGUAGUACGGAUACCAGAUCCAGAUGUAUCCCUUGGCAGCUGUGGUACAGCGUUGCAUCGCUCCUAG [Exclusion - Theophylline A (Freestyle 19)],20.6 nM
